Measurements published in IntAct's records for PubMed 31515488.

B1: LHFPL tetraspan subfamily member 5 protein (Homo sapiens), Q8TAF8 (parent)
chain: MVKLLPAQEAAKIYHTNYVRNSRAVGVMWGTLTICFSVLVMALFIQPYWIGDSVNTPQAGYFGLFSYCVGNVLSSELICKGGPLDFSSIPSRAFKTAMFFVALGMFLIIGSIICFSLFFICNTATVYKICAWMQLAAATGLMIGCLVYPDGWDSSEVRRMCGEQTGKYTLGHCTIRWAFMLAILSIGDALILSFLAFVLGYRQDKLLPDDYKADGTEEV
partner: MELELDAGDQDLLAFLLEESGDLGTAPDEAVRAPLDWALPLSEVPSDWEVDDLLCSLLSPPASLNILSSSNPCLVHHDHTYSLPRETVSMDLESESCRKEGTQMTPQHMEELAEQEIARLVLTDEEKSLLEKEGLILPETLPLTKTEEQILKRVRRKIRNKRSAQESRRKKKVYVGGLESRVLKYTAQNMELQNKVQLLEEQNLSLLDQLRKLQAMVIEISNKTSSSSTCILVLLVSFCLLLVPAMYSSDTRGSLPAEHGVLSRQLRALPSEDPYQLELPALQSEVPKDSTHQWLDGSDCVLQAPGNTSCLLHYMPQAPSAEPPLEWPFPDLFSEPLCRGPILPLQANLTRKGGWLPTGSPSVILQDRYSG
B2: Nucleolar protein 12 (Homo sapiens), Q9UGY1 (parent)
chain: MGRNKKKKRDGDDRRPRLVLSFDEEKRREYLTGFHKRKVERKKAAIEEIKQRLKEEQRKLREERHQEYLKMLAEREEALEEADELDRLVTAKTESVQYDHPNHTVTVTTISDLDLSGARLLGLTPPEGGAGDRSEEEASSTEKPTKALPRKSRDPLLSQRISSLTASLHAHSRKKVKRKHPRRAQDSKKPPRAPRTSKAQRRRLTGKARHSGE
B3: Ubiquitin-like protein 4B (Homo sapiens), Q8N7F7 (parent)
chain: MFLTVKLLLGQRCSLKVSGQESVATLKRLVSRRLKVPEEQQHLLFRGQLLEDDKHLSDYCIGPNASINVIMQPLEKMALKEAHQPQTQPLWHQLGLVLAKHFEPQDAKAVLQLLRQEHEERLQKISLEHLEQLAQYLLAEEPHVEPAGERELEAKARPQSSCDMEEKEEAAADQ
partner: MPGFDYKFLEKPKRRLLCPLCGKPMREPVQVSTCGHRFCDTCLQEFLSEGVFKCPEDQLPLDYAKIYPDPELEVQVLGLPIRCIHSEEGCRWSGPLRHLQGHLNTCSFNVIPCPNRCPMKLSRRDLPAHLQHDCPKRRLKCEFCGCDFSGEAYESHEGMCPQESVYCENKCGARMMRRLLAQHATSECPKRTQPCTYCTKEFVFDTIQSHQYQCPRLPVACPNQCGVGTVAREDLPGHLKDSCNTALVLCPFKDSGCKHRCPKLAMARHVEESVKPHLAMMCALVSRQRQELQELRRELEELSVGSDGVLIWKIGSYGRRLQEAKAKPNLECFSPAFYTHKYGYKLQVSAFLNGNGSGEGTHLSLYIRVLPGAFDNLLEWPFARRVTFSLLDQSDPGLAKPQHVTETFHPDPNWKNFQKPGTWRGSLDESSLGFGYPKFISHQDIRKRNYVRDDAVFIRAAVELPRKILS
B4: Four and a half LIM domains protein 2 (Homo sapiens), Q14192 (parent)
chain: MTERFDCHHCNESLFGKKYILREESPYCVVCFETLFANTCEECGKPIGCDCKDLSYKDRHWHEACFHCSQCRNSLVDKPFAAKEDQLLCTDCYSNEYSSKCQECKKTIMPGTRKMEYKGSSWHETCFICHRCQQPIGTKSFIPKDNQNFCVPCYEKQHAMQCVQCKKPITTGGVTYREQPWHKECFVCTACRKQLSGQRFTARDDFAYCLNCFCDLYAKKCAGCTNPISGLGGTKYISFEERQWHNDCFNCKKCSLSLVGRGFLTERDDILCPDCGKDI
B5: F-box only protein 11 (Homo sapiens), Q86XK2 (parent)
chain: MNSVRAANRRPRRVSRPRPVQQQQQQPPQQPPPQPPQQQPPQQQPPPPPQQQQQQQPPPPPPPPPPLPQERNNVGERDDDVPADMVAEESGPGAQNSPYQLRRKTLLPKRTACPTKNSMEGASTSTTENFGHRAKRARVSGKSQDLSAAPAEQYLQEKLPDEVVLKIFSYLLEQDLCRAACVCKRFSELANDPILWKRLYMEVFEYTRPMMHPEPGKFYQINPEEYEHPNPWKESFQQLYKGAHVKPGFAEHFYSNPARYKGRENMLYYDTIEDALGGVQEAHFDGLIFVHSGIYTDEWIYIESPITMIGAAPGKVADKVIIENTRDSTFVFMEGSEDAYVGYMTIRFNPDDKSAQHHNAHHCLEITVNCSPIIDHCIIRSTCTVGSAVCVSGQGACPTIKHCNISDCENVGLYITDHAQGIYEDNEISNNALAGIWVKNHGNPIIRRNHIHHGRDVGVFTFDHGMGYFESCNIHRNRIAGFEVKAYANPTVVRCEIHHGQTGGIYVHEKGRGQFIENKIYANNFAGVWITSNSDPTIRGNSIFNGNQGGVYIFGDGRGLIEGNDIYGNALAGIQIRTNSCPIVRHNKIHDGQHGGIYVHEKGQGVIEENEVYSNTLAGVWVTTGSTPVLRRNRIHSGKQVGVYFYDNGHGVLEDNDIYNHMYSGVQIRTGSNPKIRRNKIWGGQNGGILVYNSGLGCIEDNEIFDNAMAGVWIKTDSNPTLRRNKIHDGRDGGICIFNGGRGLLEENDIFRNAQAGVLISTNSHPILRKNRIFDGFAAGIEITNHATATLEGNQIFNNRFGGLFLASGVNVTMKDNKIMNNQDAIEKAVSRGQCLYKISSYTSYPMHDFYRCHTCNTTDRNAICVNCIKKCHQGHDVEFIRHDRFFCDCGAGTLSNPCTLAGEPTHDTDTLYDSAPPIESNTLQHN
B6: Transcription factor 12 (Homo sapiens), Q99081-3 (parent)
chain: MNPQQQRMAAIGTDKELSDLLDFSAMFSPPVNSGKTRPTTLGSSQFSGSGIDERGGTTSWGTSGQPSPSYDSSRGFTDSPHYSDHLNDSRLGAHEGLSPTPFMNSNLMGKTSERGSFSLYSRDTGLPGCQSSLLRQDLGLGSPAQLSSSGKPGTAYYSFSATSSRRRPLHDSAALDPLQAKKVRKVPPGLPSSVYAPSPNSDDFNRESPSYPSPKPPTSMFASTFFMQDGTHNSSDLWSSSNGMSQPGFGGILGTSTSHMSQSSSYGNLHSHDRLSYPPHSVSPTDINTSLPPMSSFHRGSTSSSPYVAASHTPPINGSDSILGTRGNAAGSSQTGDALGKALASIYSPDHTSSSFPSNPSTPVGSPSPLTGTSQWPRPGGQAPSSPSYENSLHSLKNRVEQQLHEHLQDAMSFLKDVCEQSRMEDRLDRLDDAIHVLRNHAVGPSTSLPAGHSDIHSLLGPSHNAPIGSLNSNYGGSSLVASSRSASMVGTHREDSVSLNGNHSVLSSTVTTSSTDLNHKTQENYRGGLQSQSGTVVTTEIKTENKEKDENLHEPPSSDDMKSDDESSQKDIKVSSRGRTSSTNEDEDLNPEQKIEREKERRMANNARERLRVRDINEAFKELGRMCQLHLKSEKPQTKLLILHQAVAVILSLEQQVRERNLNPKAACLKRREEEKVSAVSAEPPTTLPGTHPGLSETTNPMGHM
partner: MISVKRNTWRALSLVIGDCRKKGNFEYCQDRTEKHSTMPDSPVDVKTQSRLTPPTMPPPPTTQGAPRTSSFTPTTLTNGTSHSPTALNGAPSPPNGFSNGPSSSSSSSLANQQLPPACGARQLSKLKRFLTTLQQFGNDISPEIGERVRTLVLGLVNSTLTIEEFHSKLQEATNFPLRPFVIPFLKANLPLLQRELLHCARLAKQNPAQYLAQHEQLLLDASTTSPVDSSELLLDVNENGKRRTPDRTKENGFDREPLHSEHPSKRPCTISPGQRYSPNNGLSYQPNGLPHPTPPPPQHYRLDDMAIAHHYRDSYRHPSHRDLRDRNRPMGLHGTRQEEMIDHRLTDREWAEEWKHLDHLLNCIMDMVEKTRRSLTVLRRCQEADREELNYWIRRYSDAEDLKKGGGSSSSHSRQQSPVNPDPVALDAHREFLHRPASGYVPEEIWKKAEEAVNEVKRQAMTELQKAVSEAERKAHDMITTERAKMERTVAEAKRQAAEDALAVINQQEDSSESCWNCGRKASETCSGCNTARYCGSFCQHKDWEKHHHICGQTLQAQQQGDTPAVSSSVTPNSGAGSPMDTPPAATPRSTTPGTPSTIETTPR
B7: Heat shock factor protein 2 (Homo sapiens), Q03933 (parent)
chain: MKQSSNVPAFLSKLWTLVEETHTNEFITWSQNGQSFLVLDEQRFAKEILPKYFKHNNMASFVRQLNMYGFRKVVHIDSGIVKQERDGPVEFQHPYFKQGQDDLLENIKRKVSSSKPEENKIRQEDLTKIISSAQKVQIKQETIESRLSELKSENESLWKEVSELRAKHAQQQQVIRKIVQFIVTLVQNNQLVSLKRKRPLLLNTNGAQKKNLFQHIVKEPTDNHHHKVPHSRTEGLKPRERISDDIIIYDVTDDNADEENIPVIPETNEDVISDPSNCSQYPDIVIVEDDNEDEYAPVIQSGEQNEPARESLSSGSDGSSPLMSSAVQLNGSSSLTSEDPVTMMDSILNDNINLLGKVELLDYLDSIDCSLEDFQAMLSGRQFSIDPDLLVDLFTSSVQMNPTDYINNTKSENKGLETTKNNVVQPVSEEGRKSKSKPDKQLIQYTAFPLLAFLDGNPASSVEQASTTASSEVLSSVDKPIEVDELLDSSLDPEPTQSKLVRLEPLTEAEASEATLFYLCELAPAPLDSDMPLLDS

Variants of: B1
Conditions: with creb3_human CREB3, O43889

Row | Variant | effect of a mutation on the interaction
1 | K205N | with no effect

Variants of: B2
Conditions: with cep70_human CEP70, Q8NHQ1
cep70_human CEP70, Q8NHQ1, sequence (Q8NHQ1 whole entry): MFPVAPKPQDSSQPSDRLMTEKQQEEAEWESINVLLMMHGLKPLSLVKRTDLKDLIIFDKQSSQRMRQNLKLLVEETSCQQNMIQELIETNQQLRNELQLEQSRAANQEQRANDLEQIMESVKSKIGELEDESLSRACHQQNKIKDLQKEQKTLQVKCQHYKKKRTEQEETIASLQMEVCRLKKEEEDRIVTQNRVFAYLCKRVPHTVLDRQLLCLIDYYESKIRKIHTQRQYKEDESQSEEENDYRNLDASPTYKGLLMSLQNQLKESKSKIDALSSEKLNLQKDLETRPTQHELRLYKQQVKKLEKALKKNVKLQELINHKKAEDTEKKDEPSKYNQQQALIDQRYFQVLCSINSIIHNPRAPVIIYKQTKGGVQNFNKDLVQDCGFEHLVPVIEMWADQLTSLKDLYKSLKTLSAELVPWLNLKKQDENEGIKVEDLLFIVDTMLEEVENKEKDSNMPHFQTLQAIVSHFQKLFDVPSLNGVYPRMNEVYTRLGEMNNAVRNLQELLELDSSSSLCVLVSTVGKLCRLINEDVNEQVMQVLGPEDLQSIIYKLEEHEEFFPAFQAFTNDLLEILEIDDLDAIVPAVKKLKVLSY

Row | Variant | effect of a mutation on the interaction
2 | Y98H | with no effect

Variants of: B3
Conditions: with traf4_human TRAF4, Q9BUZ4

Row | Variant | effect of a mutation on the interaction
3 | R121H | disrupting interaction strength

Variants of: B4
Conditions: with gbg12_human GNG12, Q9UBI6
gbg12_human GNG12, Q9UBI6, sequence (Q9UBI6 whole entry): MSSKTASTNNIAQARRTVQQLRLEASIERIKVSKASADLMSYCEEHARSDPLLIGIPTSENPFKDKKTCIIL

Row | Variant | effect of a mutation on the interaction
4 | R177Q | with no effect

Variants of: B4
Conditions: with inca1_human INCA1, Q0VD86
inca1_human INCA1, Q0VD86, sequence (Q0VD86 whole entry): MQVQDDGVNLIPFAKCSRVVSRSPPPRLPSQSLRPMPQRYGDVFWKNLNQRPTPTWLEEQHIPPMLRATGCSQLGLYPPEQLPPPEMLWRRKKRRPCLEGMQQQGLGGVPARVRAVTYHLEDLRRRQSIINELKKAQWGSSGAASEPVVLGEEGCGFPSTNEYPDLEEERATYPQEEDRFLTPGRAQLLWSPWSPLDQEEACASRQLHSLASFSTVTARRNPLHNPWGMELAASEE

Row | Variant | effect of a mutation on the interaction
5 | A37S | with no effect
6 | N95K | with no effect

Variants of: B5
Conditions: with skp1_human SKP1, P63208
skp1_human SKP1, P63208, sequence (P63208 whole entry): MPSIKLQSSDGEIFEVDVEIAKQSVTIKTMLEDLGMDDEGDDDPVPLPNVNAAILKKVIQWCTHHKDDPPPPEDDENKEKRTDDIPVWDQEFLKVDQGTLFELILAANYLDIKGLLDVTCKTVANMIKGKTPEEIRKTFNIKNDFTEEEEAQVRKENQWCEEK

Row | Variant | effect of a mutation on the interaction
7 | I306V | with no effect
8 | Y226C | with no effect

Variants of: B6
Conditions: with mtg8_human RUNX1T1, Q06455

Row | Variant | effect of a mutation on the interaction
9 | R74G | with no effect
10 | Y120C | with no effect

Further lines, results first:

Row | effect of a mutation on the interaction | Variant
11 | with no effect | A155T
12 | with no effect | S446F
13 | with no effect | A482V
14 | with no effect | N606H

Variants of: B7
Conditions: with mtus2_human MTUS2, Q5JR59
mtus2_human MTUS2, Q5JR59, sequence (Q5JR59 whole entry): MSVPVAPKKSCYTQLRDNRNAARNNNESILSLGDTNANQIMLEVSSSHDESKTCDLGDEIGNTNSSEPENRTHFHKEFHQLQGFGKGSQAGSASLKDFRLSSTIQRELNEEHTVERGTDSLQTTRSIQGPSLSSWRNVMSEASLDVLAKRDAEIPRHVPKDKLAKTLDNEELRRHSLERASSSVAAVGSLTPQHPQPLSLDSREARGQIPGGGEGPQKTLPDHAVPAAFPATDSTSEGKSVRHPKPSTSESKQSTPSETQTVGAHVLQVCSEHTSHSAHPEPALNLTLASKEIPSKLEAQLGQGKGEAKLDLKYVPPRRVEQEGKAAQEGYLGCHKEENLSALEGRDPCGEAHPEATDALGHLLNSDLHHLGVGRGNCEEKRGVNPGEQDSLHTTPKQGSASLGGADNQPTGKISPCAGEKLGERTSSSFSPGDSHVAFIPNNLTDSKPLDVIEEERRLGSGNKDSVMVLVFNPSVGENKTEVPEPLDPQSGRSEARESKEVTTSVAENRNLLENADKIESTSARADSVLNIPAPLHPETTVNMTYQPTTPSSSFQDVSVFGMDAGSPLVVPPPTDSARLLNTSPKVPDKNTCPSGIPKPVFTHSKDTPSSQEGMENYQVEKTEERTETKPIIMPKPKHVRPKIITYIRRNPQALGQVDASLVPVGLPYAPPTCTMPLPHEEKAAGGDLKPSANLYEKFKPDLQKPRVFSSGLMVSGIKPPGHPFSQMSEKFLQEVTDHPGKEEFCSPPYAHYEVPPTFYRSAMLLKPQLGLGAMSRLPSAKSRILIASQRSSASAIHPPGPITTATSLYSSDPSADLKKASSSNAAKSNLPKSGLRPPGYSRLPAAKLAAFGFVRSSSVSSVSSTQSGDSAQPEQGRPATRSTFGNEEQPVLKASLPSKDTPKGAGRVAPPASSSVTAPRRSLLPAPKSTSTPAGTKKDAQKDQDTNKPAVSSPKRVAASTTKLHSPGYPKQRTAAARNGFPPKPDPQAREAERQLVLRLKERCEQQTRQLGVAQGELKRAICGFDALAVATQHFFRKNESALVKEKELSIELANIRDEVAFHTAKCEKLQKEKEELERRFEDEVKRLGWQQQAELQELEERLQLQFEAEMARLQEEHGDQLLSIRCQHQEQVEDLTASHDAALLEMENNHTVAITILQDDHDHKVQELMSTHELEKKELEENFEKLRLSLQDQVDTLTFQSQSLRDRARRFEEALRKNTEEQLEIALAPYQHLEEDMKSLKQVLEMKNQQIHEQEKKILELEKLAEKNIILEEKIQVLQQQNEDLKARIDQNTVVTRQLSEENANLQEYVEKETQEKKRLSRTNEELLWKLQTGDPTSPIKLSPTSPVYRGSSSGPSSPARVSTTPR

Row | Variant | effect of a mutation on the interaction
15 | Q34H | with no effect
16 | D222V | with no effect

Variants of: B7
Conditions: with nup62_human NUP62, P37198
nup62_human NUP62, P37198, sequence (P37198 whole entry): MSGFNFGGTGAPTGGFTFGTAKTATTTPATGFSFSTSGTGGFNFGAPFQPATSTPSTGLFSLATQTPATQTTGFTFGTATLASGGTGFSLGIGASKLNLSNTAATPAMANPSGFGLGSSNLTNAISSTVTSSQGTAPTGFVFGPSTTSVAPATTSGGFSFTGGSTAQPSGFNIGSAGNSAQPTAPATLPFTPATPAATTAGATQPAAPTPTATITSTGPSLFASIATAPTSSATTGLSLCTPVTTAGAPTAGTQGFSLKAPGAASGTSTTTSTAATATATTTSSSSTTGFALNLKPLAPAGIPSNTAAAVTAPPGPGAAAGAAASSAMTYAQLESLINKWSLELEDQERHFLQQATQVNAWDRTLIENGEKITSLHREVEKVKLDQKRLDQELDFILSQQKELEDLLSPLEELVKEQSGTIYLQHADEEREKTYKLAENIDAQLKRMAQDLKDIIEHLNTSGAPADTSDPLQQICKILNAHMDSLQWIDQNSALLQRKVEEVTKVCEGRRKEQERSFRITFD

Row | Variant | effect of a mutation on the interaction
17 | Q34H | with no effect
18 | D222V | with no effect

Variants of: B7
Conditions: with wdr5_human WDR5, P61964

Row | Variant | effect of a mutation on the interaction
19 | Q34H | with no effect
20 | D222V | with no effect

Variants of: B7
Conditions: with tpm3_human TPM3, P06753
tpm3_human TPM3, P06753, sequence (P06753 whole entry): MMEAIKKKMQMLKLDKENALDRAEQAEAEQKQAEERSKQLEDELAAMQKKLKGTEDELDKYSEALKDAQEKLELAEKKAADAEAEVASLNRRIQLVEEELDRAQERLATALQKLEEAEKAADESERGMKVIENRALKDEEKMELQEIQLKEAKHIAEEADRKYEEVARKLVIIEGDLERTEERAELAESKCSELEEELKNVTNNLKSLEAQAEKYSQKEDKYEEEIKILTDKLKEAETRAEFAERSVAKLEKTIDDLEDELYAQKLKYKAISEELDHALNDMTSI

Row | Variant | effect of a mutation on the interaction
21 | Q34H | with no effect
22 | D222V | with no effect
